Experimental data published in IntAct's records for PubMed 30260988.

B1: CXXC motif containing zinc binding protein (Homo sapiens), Q9NWV4 (parent)
chain: MGKIALQLKATLENITNLRPVGEDFRWYLKMKCGNCGEISDKWQYIRLMDSVALKGGRGSASMVQKCKLCARENSIEILSSTIKPYNAEDNENFKTIVEFECRGLEPVDFQPQAGFAAEGVESGTAFSDINLQEKDWTDYDEKAQESVGIYEVTHQFVKC
partner: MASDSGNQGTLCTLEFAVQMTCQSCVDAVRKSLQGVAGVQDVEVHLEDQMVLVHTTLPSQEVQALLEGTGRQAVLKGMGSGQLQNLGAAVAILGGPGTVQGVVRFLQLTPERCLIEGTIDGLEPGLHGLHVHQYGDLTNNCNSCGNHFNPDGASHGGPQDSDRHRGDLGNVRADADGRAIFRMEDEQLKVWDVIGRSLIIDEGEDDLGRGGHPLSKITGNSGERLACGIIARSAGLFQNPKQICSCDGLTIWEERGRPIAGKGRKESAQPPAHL

Experiments:
ccs_human CCS, O14618 [1] = variants of: B1; conditions: with ccs_human CCS
ccs_human CCS, O14618 [2] = variants of: B1; conditions: with ccs_human CCS; remark: listed apart in the source

| effect of a mutation on the interaction (ccs_human CCS, O14618 [1]) | effect of a mutation on the interaction (ccs_human CCS, O14618 [2]) | Variant |
| --- | --- | --- |
| with no effect | causing an interaction | MGKIALQLKATLENITNLRPVGEDFRWYLKMKAGNAGEISDKWQYIRLMDSVALKGGRGSASMVQKCKLCARENSIEILSSTIKPYNAEDNENFKTIVEFECRGLEPVDFQPQAGFAAEGVESGTAFSDINLQEKDWTDYDEKAQESVGIYEVTHQFVKC [C33A;C36A] |
| disrupting interaction strength | causing an interaction | MGKIALQLKATLENITNLRPVGEDFRWYLKMKCGNCGEISDKWQYIRLMDSVALKGGRGSASMVQKAKLAARENSIEILSSTIKPYNAEDNENFKTIVEFECRGLEPVDFQPQAGFAAEGVESGTAFSDINLQEKDWTDYDEKAQESVGIYEVTHQFVKC [C67A;C70A] |
